# IntAct's records for PubMed 25487150
# B1: Spindle pole body-associated protein cut12 (Schizosaccharomyces pombe (strain ATCC 38366 / 972)), O59755 (parent)
# chain: MSETLNTPPTYAWVLKAFSSKLAGTVTKPVTKMSSYIEDAESDAELPQDAKEDLRPTETLTPLKSKAAQNGILKTPGTLQIKKTVNFKDISKDAATWNRPTKNNFLFTRLDDENPLMGHEEFKSPLLQSTPKPNINNPDNENKSKHDEFDNRYNININESYKNETKSNQRLGEDVPSKKKYPHSMDAEISKFKWDSNNNNDWSSLMKDCFRDVVNNNRKMKEIIKDVMIDTSQAFPSESLDEPDYTINLDAPRSSSGKYWKQKFSMLDSAHSDLELELTSIRERLESLILEKQEEINFWKQRCRALETEKIHNHQGQQSKYKGKEFVGNRFSQMRELYTAKPSPITTKVVSRPSQSDVREPQEQVPSKNLHRGADMSHLAAQMLTHSSKKSHTTNLIPSEGIISSTPISAASKVRMNLMQSNQTPTPAPFSIAAKKSHLPSKLSFPQDGGSLSSATTLQQLPKARVTPNVLSSLSSNLGKTNPTSVYQSKANVTTSADVEKPQVKVATSSRVDYDLKSPNQRTANAKKRLEERRRRRKLKLQELQLNS
# B2: Protein phosphatase PP2A regulatory subunit B (Schizosaccharomyces pombe (strain ATCC 38366 / 972)), Q12702 (parent)
# chain: MDDIEDSLDQWKFAQCFGDKGDVEDITEADIISAVEFDHTGDYLATGDKGGRVVLFERNHSKKGCEYKFFTEFQSHEPEFDYLKSLEIEEKINKIRWCKRTNRAHFLLSTNDKTIKLWKLYEKNLKVVAENNLSDSFHSPMQGPLTTPSQLRLPRLNHHDMIIAAYPRRVYANAHAYHINSISVNSDAETYISADDLRINLWNLSISDHSFNIVDIKPENMEELTEVITSAEFHPINCNHLMYSSSKGNIKLLDLRQSALCDNPCKLFEDQEDQDSKSFFSEIISSISDVKFSQNGRYILSRDYLTLKIWDVNMEKAPVKTIPLHDVLRSKLCDLYENDCIFDKFECTFSGDDKHVLSGSYSNNFGIYPTDSSLPGDRGQIVLQADKAAFRARKSAANNVPKLNAVKNNDWRSQPQAAMGSASVGLDPDNLDYNKKILHASWHPFEDSVAIAATNNLFVFSKL
# Variants of: B1
# Settings: with pp11_schpo dis2, P13681
row,effect of a mutation on the interaction,Variant
1,disrupting interaction strength,G71V;K83A;V85A;F87A
2,decreasing interaction strength,I72L;K74R;V85A;F87A
3,decreasing interaction strength,V85A;F87A
4,decreasing interaction strength,G71V

# Variants of: B2
# Settings: with pp11_schpo dis2, P13681
# Target sequence in this assay (P13681 whole entry): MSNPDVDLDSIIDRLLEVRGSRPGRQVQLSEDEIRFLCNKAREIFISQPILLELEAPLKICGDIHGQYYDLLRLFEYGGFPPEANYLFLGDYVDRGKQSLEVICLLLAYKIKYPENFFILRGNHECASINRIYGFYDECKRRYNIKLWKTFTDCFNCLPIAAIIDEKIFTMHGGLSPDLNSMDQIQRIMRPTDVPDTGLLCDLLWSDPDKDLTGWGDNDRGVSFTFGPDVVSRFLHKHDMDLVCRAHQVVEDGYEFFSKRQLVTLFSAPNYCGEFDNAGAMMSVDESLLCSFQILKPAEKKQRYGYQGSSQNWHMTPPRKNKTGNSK
row,effect of a mutation on the interaction,Variant
1,disrupting interaction strength,R52A;V54A;F56A
2,decreasing interaction strength,V54A
